± gives the uncertainty stated by the source.
B1: Gamma-crystallin C, residues 4 to 79; numbered along this chain, P07315 (parent)
chain: ITFYEDRAFQGRSYETTTDCPNLQPYFSRCNSIRVESGCWMLYERPNYQGQQYLLRRGEYPDYQQWMGLSDSIRSC

Variants of: B1
Experiment: abundance fitness (aPCA) (normalised: wild type 0, dead -1); higher = more abundant; growth selection in yeast, the domain comes from the species named
Conditions: Homo sapiens

Variant | abundance fitness
L54S | -0.003 ± 0.088
L54A | -0.016 ± 0.08
L54Q | 0.096 ± 0.26
L54W | -0.073 ± 0.13
L54E | -0.004 ± 0.15
L54I | -0.135 ± 0.15
L54C | 0.085 ± 0.14
L54N | -0.025 ± 0.35
L54D | -0.149 ± 0.13
L54K | 0.057 ± 0.19
L54V | 0.02 ± 0.084
L54H | -0.068 ± 0.22
L54P | -0.092 ± 0.13
L54Y | -0.393 ± 0.25
L54R | -0.104 ± 0.081
L54T | -0.234 ± 0.1
L54M | -0.044 ± 0.089
Y60L | -0.247 ± 0.21
Y60F | -0.198 ± 0.28
R56S | -0.611 ± 0.14
R56T | 0.071 ± 0.085
R56E | 0.005 ± 0.086
R56M | 0.118 ± 0.095
R56V | 0.039 ± 0.088

Variant | abundance fitness
R56C | 0.086 ± 0.16
R56K | -0.018 ± 0.29
R56A | -0.019 ± 0.088
R56N | 0.034 ± 0.33
R56Y | 0.255 ± 0.24
R56W | -0.029 ± 0.18
R56P | -0.115 ± 0.13
R56Q | -0.003 ± 0.2
R56F | 0.195 ± 0.22
R56L | -0.062 ± 0.074
R56D | -0.107 ± 0.15
P61D | -0.034 ± 0.2
P61V | -0.083 ± 0.064
P61R | -0.038 ± 0.053
P61I | -0.129 ± 0.14
P61H | -0.205 ± 0.14
P61C | -0.072 ± 0.052
P61A | -0.004 ± 0.061
P61S | 0.004 ± 0.08
P61L | -0.064 ± 0.072
P61E | -0.094 ± 0.22
P61F | -0.039 ± 0.25
P61M | 0.002 ± 0.068
P61T | -0.142 ± 0.087

Variant | abundance fitness
P61G | -0.041 ± 0.069
P61K | 0 ± 0.11
P61Q | -0.051 ± 0.086
P61Y | -0.018 ± 0.17
R57E | 0.064 ± 0.1
R57W | -0.143 ± 0.11
R57S | -0.039 ± 0.11
R57A | 0.046 ± 0.12
R57L | -0.059 ± 0.081
R57M | 0.07 ± 0.29
R57K | 0.049 ± 0.15
R57C | 0.142 ± 0.26
R57V | 0.024 ± 0.078
R57F | 0.059 ± 0.2
R57T | 0.244 ± 0.35
R57H | 0.001 ± 0.41
R57Y | -0.269 ± 0.18
R57G | 0.051 ± 0.066
R57I | -0.053 ± 0.16
R57P | -0.009 ± 0.12
R57Q | 0.044 ± 0.14
E59R | -0.181 ± 0.064
E59K | 0 ± 0.11
E59N | -0.155 ± 0.23

Variant | abundance fitness
E59W | -0.275 ± 0.099
E59S | 0.049 ± 0.1
E59V | -0.053 ± 0.054
E59M | -0.029 ± 0.12
E59T | -0.196 ± 0.34
E59D | 0.025 ± 0.2
E59A | -0.07 ± 0.071
E59Q | 0.009 ± 0.15
E59P | 0.003 ± 0.15
E59G | 0.019 ± 0.048
E59L | -0.084 ± 0.1
E59F | -0.039 ± 0.11
E59I | -0.789 ± 0.35
Y53T | -0.146 ± 0.14
Y53W | 0.084 ± 0.085
Y53V | -0.025 ± 0.085
Y53Q | -0.094 ± 0.096
Y53N | -0.062 ± 0.38
Y53R | -0.019 ± 0.058
Y53F | -0.015 ± 0.16
Y53G | -0.143 ± 0.079
Y53I | 0.131 ± 0.26
Y53K | -0.026 ± 0.12
Y53P | -0.947 ± 0.2

Variant | abundance fitness
Y53M | -0.005 ± 0.16
Y53E | -0.142 ± 0.12
Y53S | 0.022 ± 0.1
Y53C | -0.113 ± 0.14
Y53A | -0.127 ± 0.15
D62H | -0.106 ± 0.096
D62Q | -0.062 ± 0.082
D62P | -0.401 ± 0.16
D62M | -0.03 ± 0.084
D62R | -0.034 ± 0.057
D62F | 0.041 ± 0.15
D62I | -0.26 ± 0.23
D62G | -0.013 ± 0.04
D62C | -0.177 ± 0.098
D62A | -0.006 ± 0.053
D62L | -0.086 ± 0.085
D62N | -0.043 ± 0.1
Q51L | 0.014 ± 0.16
Q51P | -0.219 ± 0.087
Q51W | -0.149 ± 0.13
Q51T | -0.159 ± 0.12
Q51M | -0.088 ± 0.22
Q51V | -0.016 ± 0.1
Q51S | -0.015 ± 0.22

Variant | abundance fitness
L55D | -0.807 ± 0.32
L55R | -0.794 ± 0.15
L55F | -0.246 ± 0.1
L55N | -0.85 ± 0.39
L55V | -0.048 ± 0.078
L55T | -0.318 ± 0.17
L55A | -0.368 ± 0.083
L55Y | -0.04 ± 0.13
L55K | -0.853 ± 0.35
L55I | 0.038 ± 0.16
L55H | -1.03 ± 0.39
L55G | -0.571 ± 0.068
L55W | -0.631 ± 0.26
L55M | -0.237 ± 0.12
L55C | -0.178 ± 0.31
L55S | -0.701 ± 0.15
G58N | 0.034 ± 0.14
G58Q | -0.166 ± 0.052
G58L | -0.659 ± 0.12
G58W | -0.408 ± 0.12
G58E | -0.272 ± 0.15
G58S | -0.039 ± 0.081
G58R | -0.16 ± 0.05
G58P | -0.674 ± 0.15

Variant | abundance fitness
G58T | -0.102 ± 0.078
G58M | -0.223 ± 0.12
G58V | -1 ± 0.22
G58D | 0.251 ± 0.33
G58Y | 0.009 ± 0.41
G58K | -0.197 ± 0.17
Q52M | -0.108 ± 0.21
Q52D | 0.102 ± 0.3
Q52G | -0.071 ± 0.076
Q52S | -0.041 ± 0.12
Q52A | -0.014 ± 0.16
Q52Y | -0.326 ± 0.47
Q52V | -0.076 ± 0.11
Q52T | -0.114 ± 0.13
Q52I | -0.105 ± 0.19
Q52R | -0.072 ± 0.073
Q52E | 0.014 ± 0.17
Q52C | -0.138 ± 0.21
Q52N | -0.053 ± 0.21
Q52L | -0.017 ± 0.11
Q52F | 0.093 ± 0.23
Q52H | 0.082 ± 0.45
Q52W | -0.141 ± 0.13
